What all share (assay): cell_activity
For data set [1], the system named is ZFN SBS#46697 (synthetic).
For data set [2], the system named is ZFN SBS#46696 (synthetic).
Data set [3] relates to ZFN SBS#20505 (synthetic).
The subject of data set [4] is ZFN SBS#46698 (synthetic).
Data set [5] relates to ZFN SBS#46705 (synthetic).
Data set [6] relates to ZFN SBS#46700 (synthetic).
Data set [7] concerns ZFN SBS#46693 (synthetic).
For a further data set, the system named is ZFN SBS#8266 (synthetic).
[8] abbreviates: pair 46700:46705 at CCR2, GFP 0.05.

Our source for the activity values is patent US20180002379.

For “AAACTGCAAAAA (double strand) [CCR2 right half-site]”, the activity in data set [1] (pair 46693:46697 at CCR2, no SELEX evidence of binding the CCR2 adenine) is 0.07 % indel; in data set [2] (pair 46693:46696 at CCR2, background level, no SELEX evidence of binding the CCR2 adenine), 0.01 % indel; in data set [3] (pair 8266:20505 at CCR2, K562), 5.23 % indel.
In data set [3] (pair 8266:20505, K562), “AAACTGCAAAAG (double strand) [CCR5 right half-site (20505)]” registered an activity of 29.9 % indel.
In data set [4] (pair 46698:46705, K562), “TTATCAGGATGAGGATGACCAGCATGTT (double strand) [CCR5 shifted left 4F]” had an activity of 23.8 % indel.
With “CAAAAAGCTGAAGTGCTT (double strand) [CCR2 shifted right half-site]”, in data set [5] (setting [8]), the activity stood at 0.08 % indel.
Turning to “GGTCGTCCTCATCTTAAT (double strand) [CCR2 shifted left half-site]”, the activity in data set [4] (pair 46698:46705 at CCR2) was 0 % indel; in data set [6] (setting [8]), 0.08 % indel.
For “GTCGTCCTCATC (double strand) [CCR2 left half-site]”, the activity in data set [7] (pair 46693:46697 at CCR2, p 0.0013) amounted to 0.07 % indel; in the data set with ZFN SBS#8266 (synthetic) (pair 8266:20505 at CCR2, K562) it was 5.23 % indel.
In data set [5] (pair 46700:46705, K562, GFP 0.03), “TGCAAAAGGCTGAAGAGCATGACTGACA (double strand) [CCR5 shifted right 6F]” showed an activity of 27.4 % indel.
In data set [6] (pair 46700:46705, K562), “TTATCAGGATGAGGATGACCAGCATGTT (double strand) [CCR5 shifted left 6F]” had an activity of 27.4 % indel.
In data set [7] (pair 46693:46697, K562, GFP 0.01), “AGGATGAGGATGACCAGCATGTTGTTGC (double strand) [CCR5 left target]” registered an activity of 10 % indel.
Consider “ATAAACTGCAAAAGGCTGAAGAGCATGA (double strand) [CCR5 right target]”, for which the activity in data set [1] (pair 46693:46697, K562) is 10 % indel; in data set [2] (pair 46693:46696, K562, printed 417, 632 of 15162 reads), 4.17 % indel.
Regarding “GATGAGGATGAC (double strand) [CCR5 left half-site (8266)]”, in the data set with ZFN SBS#8266 (synthetic) (pair 8266:20505, K562), the activity was 29.9 % indel.
